{"source": "paper PMC10252837", "about": "“A Novel Time-Resolved Fluorescence Resonance Energy Transfer Assay for the Discovery of Small-Molecule Inhibitors of HIV-1 Tat-Regulated Transcription” (International Journal of Molecular Sciences, 2023)", "key": {"[1]": {"tested_on": "Tat (ARM)-TAR RNA interaction", "experimental": "To test whether our assay is applicable for screening specific inhibitors of the Tat-TAR RNA interaction, inhibition assays were performed with known inhibitors of the Tat-TAR RNA interaction. […] A dose–response competition assay was conducted at inhibitor concentrations of 0–100 μM to determine their inhibitory curves in our assay. […] Additionally, a dose-responsive competition assay using RNA fragments was performed to validate the specificity of the assay.\nData are expressed as the mean ± SD (n = 3) compared to a control lacking an RNA competitor.\nThe indicated concentrations of ARM and Cy5-TAR RNA fragments were incubated in 20 μL of 1× LANCE ultra assay buffer in 384-well microtiter plates with or without inhibitor (competitor) for 30 min at 20 °C in the dark. […] The reaction was performed in a final volume of 25 μL. Small volumes of the reaction solution were added automatically using Assist-Plus (Integra Bioscience, Zisers, Switzerland). After adding all the assay components, the plates were sealed with a clear cover. The ARM-TAR RNA interaction signal was measured in an EnSight multimode plate reader (PerkinElmer) using the LANCE protocol of the time-resolved fluorescence (TRF) mode in the Kaleido software (PerkinElmer), according to the manufacturer’s protocol. Briefly, the excitation light was directed to the donor (Eu) from the Xenon flash lamp at 320 nm selected by an optical filter, and then, an integration time of 100 μs and a delay time of 70 μs were provided to remove short-lived background signals; subsequently, two emission lights were detected at 615 nm for the donor (Eu) and 665 nm for the acceptor (Cy5). The TRF was measured from the top using an excitation filter and emission monochromators in a single measurement mode. The TR-FRET output signal was expressed as the emission ratio of acceptor/donor (665/615 nm × 1000) fluorescence counts. The fold activity of the TR-FRET signal for ARM-TAR RNA interaction was calculated compared to the control reaction lacking the ARM peptide."}, "[2]": {"target": "TAR RNA", "set-up": "method as in PMID 19584251", "settings": "EMSA; read-out: Kd determined by EMSA; cited from earlier work"}, "[3]": {"target": "T1, Tat (ARM)-TAR RNA interaction (Human immunodeficiency virus type 1 group M subtype B, UniProt P04608)", "T1 construct": "purchased Peptron, Daejeon, Republic of Korea (custom peptide synthesis); host or cells: chemical synthesis", "assay": "TR-FRET assay with biotinylated ARM and Eu-conjugated StAV", "format": "binding, HIV-1", "settings": "five-thousand-fold excess", "text": "Initially, a simplified TR-FRET assay was designed to determine the interaction of Tat (ARM)-TAR RNA using 5′-cyanine 5 (Cy5)-labeled TAR RNA (31 nt) and Tat (ARM) tagged with either biotin, HA, FLAG, or FITC; this was based on size-minimalized analytes to focus on the essential biochemical relevance of the Tat-TAR RNA interaction. After Tat (ARM) binds to the TAR RNA, each Eu-conjugated antibody recognized the cognate tag on the Tat (ARM) peptide. When the reaction is irradiated with a 320 nm laser, the emissive energy from the donor Eu chelate is then transferred to the Cy5 dye-labeled to TAR RNA placed at a close distance (~10 nm), resulting in luminescence at 665 nm from Cy5 and 615 nm from Eu. A certain substance inhibiting the Tat-TAR RNA interaction causes the loss of luminescence in the sample at 665 nm emission (Figure 1A). To determine which Eu-conjugated recognizer (anti-Flag, -HA, FITC antibodies, or streptavidin) is appropriate for successfully establishing the TR-FRET assay, 20 nM of ARM tagged with each epitope and the same concentration of Cy5-labeled TAR RNA fragment were incubated with 5 nM of cognate Eu-conjugated recognizer.\nStAV-Eu + + + + + + + + + + + + + + + + + + + + + + StAV-Eu + + + + + + + + + + + + […]\nBio-ARM + + + + + + + + + + + + + + + + + + + + + Biotin-ARM - + - + - + - + - + - +\nCompetitor BSA ARM L-22 LK-3 L-50\nFigure S1. […]"}, "[4]": {"tested_on": "L-51 cyclic peptide", "assay": "TR-FRET competition"}, "[5]": {"tested_on": "LK3 peptide", "assay": "TR-FRET competition"}, "[6]": {"tested_on": "L-50 cyclic peptide", "assay": "TR-FRET competition"}, "[7]": {"tested_on": "L-22 cyclic peptide", "assay": "TR-FRET competition"}, "[8]": {"tested_on": "HIV-1", "settings": "read-out: IC50 of HIV-1 infection; cited from earlier work"}, "[9]": {"target": "T2, Flag-Tat (ARM) (HIV-1 NL4-3, UniProt P04608)", "T2 chain": "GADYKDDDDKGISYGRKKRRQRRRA", "assay": "TR-FRET; 50 nM each", "settings": "tags: N-terminal FLAG; label: 5'-Cy5; hairpin without bulge"}, "[10]": {"target": "T3, Biotin-Tat (ARM) (HIV-1 NL4-3, UniProt P04608)", "T3 chain": "Biotin-GISYGRKKRRQRRRA", "assay": "TR-FRET; 20 nM each; Eu-StAV; poorly competed by free ARM and L-22", "settings": "tags: N-terminal biotin; label: 5'-Cy5; hairpin with UCU bulge"}, "[11]": {"target": "T4, Tat (ARM), tag-free (HIV-1 NL4-3, UniProt P04608)", "T4 chain": "GISYGRKKRRQRRRA", "assay": "competition; TR-FRET, 10-fold excess over Flag-ARM", "settings": "label: 5'-Cy5; hairpin with UCU bulge"}, "[12]": {"target": "T2, Flag-Tat (ARM)", "assay": "TR-FRET; up to 100 nM each; Eu-anti-Flag 5 nM", "settings": "tags: N-terminal FLAG; label: 5'-Cy5; hairpin with UCU bulge"}}, "note": "Square brackets hold non-standard residues; d marks the D form. Ends that are not written are not given here. Peptide text beside a SMILES is read from it. * marks the point of attachment. Biotin = O=C1N[C@H]2[C@H](CS[C@H]2CCCCC(=O)*)N1"}
{"molecule": "CC[C@H](C)[C@@H]1NC(=O)[C@H](CCCNC(=N)N)NC(=O)[C@H](CCCNC(=N)N)NC(=O)CNC(=O)[C@H](CCCCN)NC(=O)[C@H](CCCNC(=N)N)NC(=O)[C@H]([C@@H](C)O)NC(=O)[C@H](CCCNC(=N)N)NC(=O)[C@H](C(C)C)NC(=O)[C@H](CCCNC(=N)N)NC(=O)[C@@H]2CCCN2C(=O)[C@H]2CCCN2C(=O)[C@H]([C@@H](C)CC)NC(=O)[C@H](CCCNC(=N)N)NC1=O", "note": "[Hit L-22] (cyclo(RVRTRKGRRIRI[dP]P))", "values": [{"measurement": "IC50", "setting": "[1]; read-out: IC50 of ARM-TAR RNA interaction (TR-FRET competition), 50 nM Flag-ARM and 5′-Cy5-TAR RNA, inhibitor 0-100 μM", "value": 228, "unit": "nM"}, {"measurement": "Kd", "setting": "[2]", "value": 30, "unit": "nM"}, {"measurement": "inhibition of TR-FRET signal, in words", "setting": "[3]", "value": "insufficient inhibition"}]}
{"molecule": "GGCCAGAUCUGAGCCUGGGAGCUCUCUGGCC [Cy5-TAR RNA (31 nt)]", "values": [{"measurement": "IC50", "setting": "[4]", "value": 276, "unit": "nM"}, {"measurement": "IC50", "setting": "[5]", "value": 67.8, "unit": "nM"}, {"measurement": "IC50", "setting": "[6]", "value": 95.9, "unit": "nM"}, {"measurement": "IC50", "setting": "[7]", "value": 228, "unit": "nM"}]}
{"molecule": "Nc1ccc2oc(-c3cc(F)c(F)cc3Cl)nc2c1", "note": "[Hit T0516-4834]", "values": [{"measurement": "IC50", "setting": "[8]", "value": 200, "unit": "nM"}]}
{"molecule": "GISYGRKKRRQRRRA [ARM]", "values": [{"measurement": "inhibition of TR-FRET signal", "setting": "[1]; 500 nM competitor, control of primary screen", "value": "~ 70%"}, {"measurement": "TR-FRET signal in peptide/protein competition assay, in words", "setting": "[1]; 10-fold excess competitor, 50 nM analytes", "value": "significantly decreased"}, {"measurement": "inhibition of TR-FRET signal, in words", "setting": "[3]", "value": "insufficient inhibition"}]}
{"molecule": "GGCCAGAGAGCCUGGGAGCUCUCUGGCC (structured_RNA)", "note": "[Cy5-mt TAR RNA (28 nt, bulge-free)]", "values": [{"measurement": "binding result", "setting": "[9]", "value": "no binding"}]}
{"molecule": "GGCCAGAUCUGAGCCUGGGAGCUCUCUGGCC (structured_RNA)", "note": "[Cy5-TAR RNA (31 nt)]", "values": [{"measurement": "binding result", "setting": "[10]", "value": "binds"}, {"measurement": "binding result", "setting": "[11]", "value": "binds"}, {"measurement": "binding signal", "setting": "[12]", "value": "~11 fold signal over background"}]}
